Source: article PMC3546673
One block for each substance: values may come before it.

Tests used:
[1] = target: F-actin (actin filaments) (UniProt P68135); test: single filament binding assay (fluorescence microscopy); actin filaments from 1 μM G-actin with rhodamine-phalloidin (1 μM) and Alexa-488-labeled trx protein (5 μM), 22 °C, 30 min; diluted 1:50 and put on poly-L-lysine-coated coverslips
[2] = target: gelsolin-capped actin filaments (UniProt P68135); test: single filament binding assay (fluorescence microscopy); gelsolin-capped actin filaments labeled with rhodamine-phalloidin, incubated with Alexa-488-conjugated trx-PT or mutant (5 μM), 22 °C, 30 min; diluted 1:50 and put on poly-L-lysine-coated coverslips

- percent localized at the filament end [1]: 96%
Substance: recombinant thioredoxin-phostensin (trx-PT) (natural protein)

- percent bound to the sides of actin filaments [1]: 98%
Substance: trx-PT(125–165) (domain or fragment)

- percent localized at a filament end [2]: 96%
Substance: trx-PT(35–165) (domain or fragment)
